How the values were obtained:
Conditions in all cases: both partners purified
[1] = target: T1, reduced recombinant GapC1 (cytosolic NAD-dependent glyceraldehyde-3-phosphate dehydrogenase) from A. thaliana (A. thaliana, UniProt P25858 1-338); assay: reflectance interferometry (RIf); VDAC3 in a polymer-supported DOPC membrane on the chip; GapC1 pre-treated with 2 mM DTT (reduced) injected at different amounts in a flow chamber; rinsing with HBS buffer; association and dissociation phases fitted separately; protein-free lipid membrane as negative control
T1 construct: GapC1, cytosolic NAD-dependent glyceraldehyde-3-phosphate dehydrogenase, Arabidopsis thaliana, At3g04120; Used as analyte on VDAC3 (pre-treated with 2 mM DTT) and immobilised via NHS in buffer with 2 mM DTT for Trx-h3; also called reduced GapC1; GAPDH; source: desalted before use; pre-treated with 2 mM DTT

[2] = target: T2, oxidized recombinant GapC1 from A. thaliana (pretreated with 0.5 mM H2O2 + 0.5 mM GSH) (A. thaliana, UniProt P25858 1-338, oxidized by pretreatment with 0.5 mM H2O2 + 0.5 mM GSH; modified residues not stated for this sample); assay: reflectance interferometry (RIf); VDAC3 in a polymer-supported DOPC membrane on the chip; GapC1 pre-treated with 0.5 mM H2O2 + 0.5 mM GSH (oxidized) injected at different amounts in a flow chamber; rinsing with HBS buffer; association and dissociation phases fitted separately; protein-free lipid membrane as negative control
T2 construct: GapC1, cytosolic NAD-dependent glyceraldehyde-3-phosphate dehydrogenase, Arabidopsis thaliana, At3g04120; Same recombinant protein as m1, oxidised in vitro; also called oxidized GapC1; source: desalted before use; pre-treated with 0.5 mM H2O2 + 0.5 mM GSH

[3] = target: T1, reduced recombinant GapC1 (cytosolic …); assay: reflectance interferometry (RIf); GapC1 (or the control mCitrine) immobilised via NHS on a PEG surface; Trx-h3 injected at different concentrations; 20 mM HBS-buffer (100 mM NaCl, 0.01% Triton X-100, pH 7.5) with 2 mM DTT; KD from equilibrium binding signals by Scatchard plot

T1 sequence (P25858 whole entry): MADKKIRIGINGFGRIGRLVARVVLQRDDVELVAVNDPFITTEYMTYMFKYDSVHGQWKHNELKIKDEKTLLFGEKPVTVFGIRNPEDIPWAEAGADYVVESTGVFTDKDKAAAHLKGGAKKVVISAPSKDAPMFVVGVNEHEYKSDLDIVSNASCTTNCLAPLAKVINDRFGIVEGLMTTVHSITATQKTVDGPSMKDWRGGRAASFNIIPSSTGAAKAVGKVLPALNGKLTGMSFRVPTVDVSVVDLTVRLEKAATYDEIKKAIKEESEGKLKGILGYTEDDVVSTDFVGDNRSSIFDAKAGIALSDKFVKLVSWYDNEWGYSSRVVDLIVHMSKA
T2 sequence (P25858 whole entry): as above

B1: recombinant voltage-dependent anion-selective channel VDAC3 from A. thaliana, reconstituted in a lipid bilayer (natural protein, UniProt Q9SMX3 1-274, looked up)
chain: MVKGPGLYTEIGKKARDLLYRDYQGDQKFSVTTYSSTGVAITTTGTNKGSLFLGDVATQVKNNNFTADVKVSTDSSLLTTLTFDEPAPGLKVIVQAKLPDHKSGKAEVQYFHDYAGISTSVGFTATPIVNFSGVVGTNGLSLGTDVAYNTESGNFKHFNAGFNFTKDDLTASLILNDKGEKLNASYYQIVSPSTVVGAEISHNFTTKENAITVGTQHALDPLTTVKARVNNAGVANALIQHEWRPKSFFTVSGEVDSKAIDKSAKVGIALALKP
notes: VDAC3, mitochondrial outer membrane voltage-dependent anion-selective channel 3, Arabidopsis thaliana; cDNA cloned into pCold I with SacI and XbaI; Protein:lipid 1:1000 in DOPC; formed a polymer-supported membrane on the RIf chip; The tag is inferred from the vector; also called AtVDAC3
With B1 the Kd [1] was 236 nM and the Kd [2] was 556 nM.

B2: recombinant thioredoxin Trx-h3 from A. thaliana (natural protein, UniProt Q42403 1-118, looked up)
chain: MAAEGEVIACHTVEDWTEKLKAANESKKLIVIDFTATWCPPCRFIAPVFADLAKKHLDVVFFKVDVDELNTVAEEFKVQAMPTFIFMKEGEIKETVVGAAKEEIIANLEKHKTVVAAA
notes: Thioredoxin h3 (Trx-h3), Arabidopsis thaliana
With B2 the Kd [3] was 40000 nM.

Source: paper PMC6127989, “Cytosolic GAPDH as a redox-dependent regulator of energy metabolism” (BMC Plant Biology, 2018)
